What was measured:
Assay in all cases: flow cytometry on transiently transfected cells
[1] = biological target: T1, DR4 on transiently transfected cells (UniProt O00220 24-468, limits assumed)
T1 construct: whole, on cells
T1 sequence (looked up): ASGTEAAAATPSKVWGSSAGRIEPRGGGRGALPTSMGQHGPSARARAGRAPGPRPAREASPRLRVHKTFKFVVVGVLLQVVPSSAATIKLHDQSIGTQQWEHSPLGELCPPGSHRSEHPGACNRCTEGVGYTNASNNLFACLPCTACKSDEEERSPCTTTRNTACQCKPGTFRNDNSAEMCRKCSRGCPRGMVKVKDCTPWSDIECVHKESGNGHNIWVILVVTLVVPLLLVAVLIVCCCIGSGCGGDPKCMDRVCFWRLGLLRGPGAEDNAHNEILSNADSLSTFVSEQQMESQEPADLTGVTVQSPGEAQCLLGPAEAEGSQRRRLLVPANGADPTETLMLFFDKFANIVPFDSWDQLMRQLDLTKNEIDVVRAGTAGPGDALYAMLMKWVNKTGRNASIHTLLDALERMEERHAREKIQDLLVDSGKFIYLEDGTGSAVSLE
Procedure: (§1) One million cells, in 0.1 ml of FACS buffer (PBS, 0.1% BSA, 0.1% NaN₃), were incubated with 0.1-1 microgram of protein or antibody at RT for 15 min. The cells were washed with 3 ml of FACS buffer, reacted with biotinylated primary antibody, and stained with PE-conjugated secondary antibody at RT for 15 min. Cells were then washed again, resuspended in 0.5 microgram/ml of propidium iodide, and live cells were gated and analyzed on a FACScan using the CellQuest software (BD Biosciences).

[2] = biological target: T2, DR5 on transiently transfected cells (UniProt O14763 56-440, limits assumed)
T2 construct: whole, on cells
Procedure: as §1

[3] = biological target: T3, CD30 on transiently transfected cells (UniProt P28908 19-595, limits assumed)
T3 construct: whole, on cells
T3 sequence (looked up): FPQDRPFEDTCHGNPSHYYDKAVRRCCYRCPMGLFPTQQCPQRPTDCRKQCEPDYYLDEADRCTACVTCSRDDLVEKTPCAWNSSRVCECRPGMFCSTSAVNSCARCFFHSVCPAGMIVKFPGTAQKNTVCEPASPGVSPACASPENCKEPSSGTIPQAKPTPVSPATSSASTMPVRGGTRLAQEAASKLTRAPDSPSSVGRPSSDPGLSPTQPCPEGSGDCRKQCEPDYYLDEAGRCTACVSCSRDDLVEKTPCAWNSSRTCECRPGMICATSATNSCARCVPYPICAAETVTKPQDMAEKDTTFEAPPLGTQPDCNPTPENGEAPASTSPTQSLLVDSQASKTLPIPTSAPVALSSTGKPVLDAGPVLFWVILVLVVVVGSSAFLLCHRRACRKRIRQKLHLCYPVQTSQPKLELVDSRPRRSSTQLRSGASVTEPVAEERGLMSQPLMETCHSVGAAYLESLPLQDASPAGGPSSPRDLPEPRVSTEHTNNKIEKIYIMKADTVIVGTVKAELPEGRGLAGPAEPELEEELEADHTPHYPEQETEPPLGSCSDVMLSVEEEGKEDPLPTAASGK
Procedure: as §1

[4] = biological target: T4, HveA on transiently transfected cells (UniProt Q92956 39-283, limits assumed)
T4 construct: whole, on cells
T4 sequence (looked up): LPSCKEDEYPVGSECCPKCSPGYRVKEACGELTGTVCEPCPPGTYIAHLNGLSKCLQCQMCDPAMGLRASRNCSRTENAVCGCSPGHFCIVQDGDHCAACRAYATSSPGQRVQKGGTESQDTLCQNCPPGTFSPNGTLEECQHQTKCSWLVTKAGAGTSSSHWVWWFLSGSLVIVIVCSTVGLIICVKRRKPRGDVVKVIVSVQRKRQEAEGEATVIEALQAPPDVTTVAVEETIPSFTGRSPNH
Procedure: as §1

[5] = biological target: T5, DR6 on transiently transfected cells (UniProt O75509 42-655, limits assumed)
T5 construct: whole, on cells
T5 sequence (looked up): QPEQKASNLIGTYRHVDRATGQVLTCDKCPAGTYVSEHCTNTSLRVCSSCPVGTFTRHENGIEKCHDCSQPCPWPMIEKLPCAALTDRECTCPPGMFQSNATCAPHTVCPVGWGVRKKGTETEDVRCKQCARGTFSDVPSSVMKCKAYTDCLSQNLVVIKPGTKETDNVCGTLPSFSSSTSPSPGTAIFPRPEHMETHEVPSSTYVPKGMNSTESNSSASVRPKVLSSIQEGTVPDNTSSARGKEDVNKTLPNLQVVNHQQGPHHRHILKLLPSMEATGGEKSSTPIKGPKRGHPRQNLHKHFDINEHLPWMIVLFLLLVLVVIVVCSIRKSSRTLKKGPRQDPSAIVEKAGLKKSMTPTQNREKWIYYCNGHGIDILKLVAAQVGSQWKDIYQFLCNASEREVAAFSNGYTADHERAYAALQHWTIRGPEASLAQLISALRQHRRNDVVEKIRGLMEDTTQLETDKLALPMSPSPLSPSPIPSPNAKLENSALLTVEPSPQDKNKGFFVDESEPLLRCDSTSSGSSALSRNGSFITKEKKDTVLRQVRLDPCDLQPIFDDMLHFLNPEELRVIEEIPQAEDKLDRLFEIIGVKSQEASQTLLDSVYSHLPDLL
Procedure: as §1

[6] = biological target: T6, CD27 on transiently transfected cells (UniProt P26842 20-260, limits assumed)
T6 construct: whole, on cells
T6 sequence (looked up): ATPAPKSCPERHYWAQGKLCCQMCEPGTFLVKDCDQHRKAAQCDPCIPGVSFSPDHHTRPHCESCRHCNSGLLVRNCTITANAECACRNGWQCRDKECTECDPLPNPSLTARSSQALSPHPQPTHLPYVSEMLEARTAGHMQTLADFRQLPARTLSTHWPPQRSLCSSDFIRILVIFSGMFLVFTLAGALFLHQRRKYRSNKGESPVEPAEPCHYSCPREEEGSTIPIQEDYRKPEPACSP
Procedure: as §1

[7] = biological target: T7, AITR on transiently transfected cells (UniProt Q9Y5U5 26-241, limits assumed)
T7 construct: whole, on cells
T7 sequence (looked up): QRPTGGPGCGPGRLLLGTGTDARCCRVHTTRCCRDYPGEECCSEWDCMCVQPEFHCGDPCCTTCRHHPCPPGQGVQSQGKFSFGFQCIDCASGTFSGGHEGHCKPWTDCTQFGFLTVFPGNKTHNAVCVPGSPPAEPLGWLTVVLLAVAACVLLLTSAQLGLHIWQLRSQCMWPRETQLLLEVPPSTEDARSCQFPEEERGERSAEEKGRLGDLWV
Procedure: as §1

[8] = biological target: T8, LT R (LTβR) on transiently transfected cells (UniProt P36941 31-435, limits assumed)
T8 construct: whole, on cells
T8 sequence (P36941 31-435 limits assumed): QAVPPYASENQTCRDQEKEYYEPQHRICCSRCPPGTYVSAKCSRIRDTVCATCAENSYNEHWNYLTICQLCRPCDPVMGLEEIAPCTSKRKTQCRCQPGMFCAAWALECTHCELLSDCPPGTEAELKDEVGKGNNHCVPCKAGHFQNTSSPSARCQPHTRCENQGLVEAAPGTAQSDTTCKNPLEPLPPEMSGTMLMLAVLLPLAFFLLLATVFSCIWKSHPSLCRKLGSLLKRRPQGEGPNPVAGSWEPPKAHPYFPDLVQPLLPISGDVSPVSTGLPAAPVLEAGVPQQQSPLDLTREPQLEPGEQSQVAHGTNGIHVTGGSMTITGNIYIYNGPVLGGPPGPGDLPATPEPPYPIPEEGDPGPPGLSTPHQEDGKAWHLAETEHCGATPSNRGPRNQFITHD
Procedure: as §1

Measured: binding result

B1: FLAG-tagged soluble form of TNF-gamma-beta (aa 72-251) (ligand)
chain: LKGQEFAPSHQQVYAPLRADGDKPRAHLTVVRQTPTQHFKNQFPALHWEHELGLAFTKNRMNYTNKFLLIPESGDYFIYSQVTFRGMTSECSEIRQAGRPNKPDSITVVITKVTDSYPEPTQLLMGTKSVCEVGSNWFQPIYLGAMFSLQEGDKLMVNVSDISLVDYTKEDKTFFGAFLL
notes: also called FLAG-TL1β; FLAG-TNF-gamma-beta; not shown: FLAG tag of the pFLAG-CMV-1 vector at the amino terminus
no binding: all assays above

From patent publication US20030198640A1 (Human Genome Sciences, published 2003)
